Measured values reported in the nanobody polyreactivity screen of Harvey et al. (2022).

Test: yeast display, Sf9 membrane polyspecificity reagent, FACS + sequencing; frameworks hold sequencing errors
Outline: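 Synthetic nanobody libraries on Saccharomyces cerevisiae BJ5465 were galactose-induced for 36–48 hours, stained 1 hour at 4 °C with 10% biotinylated, detergent-solubilized Sf9 membrane reagent and enriched on streptavidin microbeads. FACS then separated cells into low and high (top ~1%) gates by anti-HA (expression) and streptavidin (reagent binding) fluorescence. Genes were colony-PCR amplified, MiSeq 2 × 250 sequenced and CDR-length filtered. A clone's polyreactivity label is that of its gate of origin.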

| Sequence | polyreactivity (PSR sort gate) |
| --- | --- |
| QVQLVESGGGLVKAGGSLRLSCAASGSTFSRYAKGWYRQAPGKEREFVAAISKSGGGTYYADSVKGRFTISRDNAKNTVYLQMNSMKPEETAVYYCARRVRYKHYDYWGQGSQVTVSS | high polyreactivity |
| QVQLVESGGGLVKAGGSLRLSCAASGSTLDPNVMGWYRQAPGKERELVAAITSGGSTYYADSVKGRFTISRDNAKNTVYLQMNSLKPEDTAVYYCAADSHGHVFYSWYDYWGQGTQVTVSS | low polyreactivity |
| QVQLVESGGGLVKAGGSLRLSCAAYGFTIVYYAMGWYIQEHGKERELVAAISATGGRTYYADSVKGRFTISRDNAKNTVYLQMNSLKPEDTAVYYCATRRRVLYGYDYWGQGTQVTVSS | high polyreactivity |
| QVQLVESGGGLVKAGGSLRLSCCASGFTFTGYAMGWYRQAPGKEWELVAAITRGGGSTYYADSVKGRFTISRDNAKNTVYLQMNSLKREDTAVYYCAAQGSRLIRISSPYYGHDYWGQGTQVTVSS | low polyreactivity |
| QVQLVESGGGLVKEGGSLRLSCAASGSIFLQYAMGWYRQAPGKERELVAGISLRGCSTYYADSVKGRFTISRHNAKNTVYLQLNSLKPEDTAVYYCAADVIVTVETYTSGPSFTEYDYWGQGTQVTVSS | low polyreactivity |
| QVQLVESGGGLVLAGGILRLSCAASGSTFYAYAMGWYRQAPGKERELVAAIDSGGSTYYADSVKGRFTISRDNAKNTVYLQMNSLKPEDTAVYYCAVRHRYTRAYWGRDYWGQGSQVTVSS | low polyreactivity |
| QVQLVESGGGLVLAGGRLRLSCAASGFTFGPYAMGWSRQAPGKERELVAAISQSGGRTSYAVSVKGRFTISRDNGKNTVYLQMNSLKPEDTAVYYCAKRANGYRSIYRMDYWGQGTQVTVSS | high polyreactivity |
| QVQLVESGGGLVLAGGSLRLSCAASGFTFPHYAMGWYRQAPGKERELVAVISWSGSSTYYADSVKGRFTISRDNAKNTVYLQMNSLKPEDTAVYYCNTRKLYQVDYDYWGQGTQVTVSS | high polyreactivity |
| QVQLVESGGGLVLAGGSLRLSCAASGGIFYGYAMGWYREAPGKEREMVAAISSTGGRTYYADSVKGRFTISRDNAKNTVYLQMNSLKPEETAVYYCAAEDFTRQFEYWGQGTQVTVSS | low polyreactivity |
| QVQLVESGGGLVLAGGSLRLSCAASGHIFFYYTMGWYRQSPGKERELVAGITIGGSTNYADSVKGLFTISRDNAKNTVYLQMISLKPEDTAVYYCNVVKYVYIYSYWEYYYWGQGTQVTVSS | low polyreactivity |
| QVQLVESGGGLVLAGGSLRLSCAASGRSSSSYAMGWYRQAPGKEREFVAAIRSSGGSTSYADSVKGRFTISRDNAKNTVYLQMNSLKPEDTAVYYCAVRKHFVVSYDYWGQGTQVTVSS | high polyreactivity |
| QVQLVESGGGLVLAGGSLRLSCAASGSIFSLYAMGWYRQAPGKEREVVAALSRGGSTNYADSVKGRFTISRDTAKNTVYLQMNCLKPEDTAVYYSNAGFGVRRKHITVYTWYDYWGQGTQVTVSS | low polyreactivity |
| QVQLVESGGGLVLAGGSLRLSCAASGSNFSPNAMGWYRKAPGKERELVAAITYRGANTYYADSVKGRFTISRDYAKNTVYFLMNSLKPEDTAVYFCAAEYAYHHVGFGYWGQGTQVTVSS | low polyreactivity |
| QVQLVESGGGLVLAGGSLRLSCAASGSTFGRYAMGWSRQAPGKERELVAAISRGTTTNYADSVKGRFTIARDNAKNTVYLQMNSLKPEETAVYYCAADQPSKRYYYWGQGTQVTVSS | low polyreactivity |
| QVQLVESGGGLVLAGGSLRLSCAASGSTFIWNAMGWYRQAPGKERELVAAIRRGSSTNYADSVKGRFTISRDNAKNTVYLQMNSLKPEDTAVYYCAKKQVTTDVSSETFVLEMDYWGQGTQVTVSS | low polyreactivity |
| QVQLVESGGGLVLAGGSLRLSCPASGFTFRYYAMGWSRQAPGKDRELVAAISVSGGSTYYADSVKGRFTISRDNAKNSVYLQMNILKPEDTAVYYCNARRNVGFGYWGQGTQVTVSS | high polyreactivity |

| Sequence | polyreactivity (PSR sort gate) |
| --- | --- |
| QVQLVESGGGLVPAGGSLRLSCAASGFIYWYAMGWYRQAPGKETELVAAITWSGGSTYADSVKGRFTISRDNAKNTVYLQMNCLKPEDSAVYYCAADKYSQWSSHTRVRYDYWGQGTQETVSS | low polyreactivity |
| QVQLVESGGGLVPAGGSLRLSCAASGFTFEYYVIGWYRHAPGKERELVAAISSRGGSTYYADSVKGRFTISRDNAKNTVYLQMNSLKPDDTAVYYGATRDPYPRRREFEYWGQGTQVTVSS | low polyreactivity |
| QVQLVESGGGLVPAGGSLRLSCAASGFTFGVYAMGWYRQAPGKERELVAAITWSGGRTYYADSVKGRFTISRDNAKNSVYLQMNSLKPEDTAVYYCAAGFYRYNAVRYDYWGQGTQVTVSS | high polyreactivity |
| QVQLVESGGGLVPAGGSLRLSCAASGFTFSYYAMGWYRQAPGKERELVAAISWSGGRTYYADSVKGRFTISRDNAKNTVYLEMNRLKPEDTAVYYCAVVYYGSIFVLEYDYWGQGTQVTVSS | high polyreactivity |
| QVQLVESGGGLVPAGGSLRLSCAASGLTFTTYAMGWYRQAPGKERELVAANSNSGATTYYADSVKGRFTISRDNAKNTVYLQMNSLKREETAVYYCAATSYTATWRYYYWGQGTQVTVSS | high polyreactivity |
| QVQLVESGGGLVPAGGSLRLSCAASGRTLYGYAMGWYRQAPGKERELVAAISGGGSTYYADSVKGRFTISRDNAKNTVYLQMNSLKPEDTAVYYCARRANFYVRRYYWGQGSQVTVSS | high polyreactivity |
| QVQLVESGGGLVPAGGSLRLSCAASGSTFTQNARGWYRQAPGKERELVAAISWSGARTYYADSVKGRFTISPDNANNTVYLQMNSLKPEDTAVYYCNNYARKRGTTNDYWGQGTQVTVSS | high polyreactivity |
| QVQLVESGGGLVPAGGSLRLSCASSGIIFWVNAMGWYRQAPGNERELVAAIRSDGSTKYADSVKRRFTISRDKAKNTVYVQMNSLKPVDTALYYCAKRDYSYPWFRDYYYWGQGTKVTVSS | low polyreactivity |
| QVQLVESGGGLVPAGGSRRLSCAASGSIFTSYAMGWYRQAPGKERELVAAISSSGGSTYYADSVSGRFTISRDNAKQTVYFQMNSLKPEDTAVYYCAARYKGVYAPHYYWGQGTQVTVSS | high polyreactivity |
| QVQLVESGGGLVPARGSLRLSCAASGSTFSDNAMGWYRQAPGKERELVAAINWSVGSTYYADSVKGRFTISRDNAKNTVYLQMNRRKPEDTAVYYCAGGYSLYESLVIFDYWGQGTQVTVSS | low polyreactivity |
| QVQLVESGGGLVQAAGSLRLSCAASGFIFQAYAMGWYRQAPGKERELVAAISSSGGSTYYADSVKGRFTISRDNAKYTVYLKRNILKPEDTAVYYCAARSRRVSLLSESYGYWGQGTQVTVSS | high polyreactivity |
| QVQLVESGGGLVQAAGSLRLSCAASGFTLTGNAMGWYRQATGKERELVAAISRNGGSTFYADSVKGRFTISRDNAKNTVFLQMNSLKPEDTAVYYCNASRYRHSAYKYDSWGQGTQVTVSS | high polyreactivity |
| QVQLVESGGGLVQAAGSLRLSCAASGITFRWYAMGWYRQAPGKERELVAAITYRGGSTHYEDSVKGRFTISRDNAKTSVYLQMNSLKPEDTAVYYCAVRRWPRYRWSDYWGKGTQVTVSS | low polyreactivity |
| QVQLVESGGGLVQAAGSLRLSCAASGNIFVRYVMGWYRQAPGKERELVAAITTSGGSTRYADSVKGRFTISRDNAKNSVYLQMNSLKPEDTAVYYCAARFRYRHLTYGYWGQGTQVTVSS | high polyreactivity |
| QVQLVESGGGLVQAAGSLRLSCAASGRTFSGYAMGWYRQAPGKERELVAAIRWSGGSTYYADSVKGRFTISRDNAKNTVYLQMNSLKPEDTAVYYCATRDYYYRYGYWGQGTQVTVSS | high polyreactivity |
